Measurements reported in paper doi:10.1101/2022.11.04.515179.

B1: 32P 24-mer 8-oxoG:C (dsDNA)
DNA 1: CTGATCGATGACGCCTGACATGAT
DNA 2: ATCATGTCAGGCGTCATCGATCAG
modifications: 8-oxoG at position 13 of strand 1
B2: Cy5 34-mer 8-oxoG:C (dsDNA)
DNA 1: GGCTTCATCGTTGTCGCAGACCTGGTGGATACCG
DNA 2: CGGTATCCACCAGGTCTGCGACAACGATGAAGCC
modifications: 8-oxoG at position 16 of strand 1

What was measured:
OGG1 WT (untagged) = OGG1 WT (untagged) (human, UniProt O15527 1-345); experiment: EMSA
GST-OGG1 G245A = GST-OGG1 G245A (human, UniProt O15527 1-345, G245A); experiment: EMSA
Sequence of GST-OGG1 G245A (O15527 whole entry G245A): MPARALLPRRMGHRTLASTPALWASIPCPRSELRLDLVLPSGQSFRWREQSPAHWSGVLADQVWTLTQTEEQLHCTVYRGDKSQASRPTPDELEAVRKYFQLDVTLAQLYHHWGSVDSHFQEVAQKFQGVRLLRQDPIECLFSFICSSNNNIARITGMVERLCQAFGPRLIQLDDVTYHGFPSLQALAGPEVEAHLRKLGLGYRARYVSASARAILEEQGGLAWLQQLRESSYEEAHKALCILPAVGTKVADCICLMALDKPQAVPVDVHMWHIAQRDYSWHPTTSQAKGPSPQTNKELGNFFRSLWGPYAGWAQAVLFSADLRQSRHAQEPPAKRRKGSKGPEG

Sequence of OGG1 WT (untagged) (O15527 whole entry): as the sequence (O15527 whole entry G245A) above, with A245G counted along it

Binder | binding result (OGG1 WT (untagged)) | binding result (GST-OGG1 G245A)
B1 | binds | –
B2 | – | no binding
